The source of these data is IntAct's records for PubMed 14507921.

In this experiment the target is ANTXR1, Q9H6X2-2.
Sequence of ANTXR1, Q9H6X2-2 (Q9H6X2 other isoform, or with tags, fused parts or gaps): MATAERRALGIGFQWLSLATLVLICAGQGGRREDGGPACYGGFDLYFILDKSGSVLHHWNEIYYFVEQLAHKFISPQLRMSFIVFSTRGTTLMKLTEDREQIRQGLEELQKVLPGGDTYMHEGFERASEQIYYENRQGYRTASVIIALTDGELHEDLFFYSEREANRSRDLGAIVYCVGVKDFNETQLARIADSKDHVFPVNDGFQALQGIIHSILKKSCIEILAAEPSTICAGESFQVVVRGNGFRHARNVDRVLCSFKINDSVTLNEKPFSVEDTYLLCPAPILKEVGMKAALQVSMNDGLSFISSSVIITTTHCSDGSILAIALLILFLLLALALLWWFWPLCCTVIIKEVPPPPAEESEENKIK

“Protective antigen (Bacillus anthracis) (from UniProt P13423) D712N”: the “effect of a mutation on the interaction” value was “decreasing interaction”.
